Laboratory results as given in US20050096290, “5'-and 3'-capped aptamers and uses therefor” (published 2005).

How the values were obtained:
[1] = molecular target: T1, VEGF165 (vascular endothelial growth factor A, 165 isoform) (Homo sapiens, UniProt P15692-4 P15692-4:27-191); test: competition; biotinylated competitor binds immobilized VEGF165 and is displaced by test aptamer; printed as SEQ ID NO:1 in text but matches listing SEQ 11; details: tags: recombinant human VEGF165, immobilized on 96-well plate; chain copies: 2 inferred; label: two 5' biotin moieties (XX)
T1 sequence (P15692 other isoform, or with tags, fused parts or gaps): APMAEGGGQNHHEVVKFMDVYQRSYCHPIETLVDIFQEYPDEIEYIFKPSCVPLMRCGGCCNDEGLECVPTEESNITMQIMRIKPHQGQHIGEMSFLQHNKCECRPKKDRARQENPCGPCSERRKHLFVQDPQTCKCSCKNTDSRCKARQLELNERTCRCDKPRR
Experimental: (§1) The ability of anti-VEGF aptamers to bind to human vascular endothelial growth factor (VEGF) was determined using a competitive binding ELISA-like assay. In this assay, recombinant VEGF₁₆₅ is bound to the wells of a 96-well plate (Quadra 96 Plus). Following blocking of nonspecific reactive sites on the plate, a matrix of the test aptamer and a biotinylated competitor, the DNA oligonucleotide shown below, were added.
(§2) “X” represent a biotin moiety in the above representation. Both the biotinylated competitor and the test aptamer compete for binding sites on the immobilized VEGF. Following the removal of the unbound biotinylated competitor and unbound test aptamer, the amount of biotinylated competitor remaining is detected using a chemiluminescence reaction. The entire plate was immediately read on a luminometer (Victor 2). The amount of bound biotinylated competitor is inversely related to the amount of bound test aptamer.

[2] = molecular target: T1, VEGF165 (vascular endothelial growth …); test: competition; competitive ELISA-like plate assay against biotinylated DNA competitor on immobilized VEGF165, chemiluminescence readout; details: tags: recombinant human VEGF165, immobilized on 96-well plate; chain copies: 2 inferred
Experimental: as §1, §2

B1: biotinylated DNA competitor oligonucleotide (ssDNA)
DNA: CCCGTCTTCCAGACAAGAGTGCAGGG
Does B1 bind [1]?
Result: binds

B2: Oligonucleotide 1 (5'-5' and 3'-3' inverted dT capped anti-VEGF aptamer) (ssRNA)
RNA: CGGAAUCAGUGAAUGCUUAUACAUCCG
modifications: 2'-F on all C and U; 2'-OMe on all G and on A except A4 and A5 (ribo); 5'-5' inverted dT cap; 3'-3' inverted dT cap
How did the IC50 [2] turn out when B2 was run?
Its IC50 is 3.28 nM.
